In the test the test system is Hela cells. In words: Flow cytometry binding to Hela cells. In kind it is cell-based. The settings on record: transfection supernatants, FIG. 6. As for the experimental part:
The binding activity of the antibodies to Hela cells (ATCC@ CCL-2, provided by COBIOER) and to RPTEC/TERT1 cells (ATCC@ CRL-4031, provided by COBIOER) was tested by flow cytometry using the transfection supernatants. Briefly, target cells were digested with 0.02% EDTA-2Na, centrifuged at 1500 rpm for 3 mins, and resuspended with PBS. After counting, the cells were added to a 1.5 ml centrifuge tube with 1×10^6 cells per tube, centrifuged at 1500 rpm for 5 minutes, and the supernatant was discarded. Then all the operations were carried out on an ice bath. 100 μL of transfection supernatant was added to each 1.5 ml centrifuge tube. Blank cells, blank cells plus secondary antibody, medium and HEK293 supernatant were set up as the controls. The reaction was performed on an ice bath for 1 hour. Then the cells were pelleted and washed twice with PBS. The secondary antibody, goat anti-Human IgG (PE, abcam, ab98596), was diluted (1:200) and added using 100 μL per tube. The reaction was performed on an ice bath for 1 hour in the dark. The cells were pelleted again and washed twice with PBS, resuspended in 300 μL PBS, and FL2 fluorescence readings were measured by cytometry. The results were analyzed by FlowJo™10 software.
Anti-FOLR1 antibody binding to Hela and RPTEC/TERT1 cells was tested by FACS. The study was carried out as described above. […]
(A flow cytometer gives signals particle by particle.)

B1: F40: Anti-FOLR1 antibody clone: "Clone F40 has a different HCDRs and LCDRs, and with different HFR and LFR" (antibody, V domains shown)
VH: EVQLLESGGGVVQPGRSLRLSCAASGFTFSSYAMHWVRQAPGKGLEWVAVISYDGSNKYYADSVKGRFIISRDNSKNTVYLQMNSLRAEDTAVYYCARPTYVFTYTGSSFDYWGQGTQVTVSS
VL: DIQVTQSPSSLSASLGDTVSITCRASRGLTDSVAWYQQKPGQAPKLLIYAASTLQSGVPSRFGGSGSGSYFTLTITSLQPEDVATYYCQNYKSAPWTFGQGTKVEIK
Consider B1, for which the Hela cell binding entry is “weakly positive”.

These data come from patent US20240207429A1, “LINKERS, DRUG LINKERS AND CONJUGATES THEREOF AND METHODS OF USING THE SAME” (ProfoundBio US Co., priority 2021, published 2024).
